{"source": "patent US6713294B1", "about": "“DNA glycosylases and their use” (priority 1996, dated 2004)", "origin": "cited, not measured here", "molecules": {"B1": {"name": "FPG protein: formamido-pyrimidine-DNA glycosylase (protein, UniProt P05523 2-269, looked up)", "Formamidopyrimidine-DNA …": "PELPEVETSRRGIEPHLVGATILHAVVRNGRLRWPVSEEIYRLSDQPVLSVQRRAKYLLLELPEGWIIIHLGMSGSLRILPEELPPEKHDHVDLVMSNGKVLRYTDPRRFGAWLWTKELEGHNVLTHLGPEPLSDDFNGEYLHQKCAKKKTAIKPWLMDNKLVVGVGNIYASESLFAAGIHPDRLASSLSLAECELLARVIKAVLLRSIEQGGTTLKDFLQSDGKPGYFAQELQVYGRKGEPCRVCGTPIVATKHAQRATFYCRQCQK"}}, "system": "imidazole ring-opened form of 7-methylguanine-DNA substrate", "settings": "Boiteux et al. (1990); cited from earlier work", "data": [{"molecule": "B1", "values": [{"measurement": "Kcat on imidazole ring-opened form of 7-methylguanine-DNA", "result": 0.0233, "unit": "s⁻¹"}]}]}
